Test results: US12173037 (TRUSTEES OF COLUMBIA UNIVERSITY IN THE CITY OF NEW YORK, dated 2024)

Target: the molecule itself
Assay: Western blot, homodimer formation

B1: K3 NGAL mutant protein (ligand)
chain: QDSTSDLIPAPPLSSVPLQQNFQDNQFQGKWYVVGLAGNAILREDEDPQKMYATIYELKEDKSYNVTSVLFRDDGCDYWIRTFVPGCQPGEFTLGNIQSYPGLTSYLVRVVSTNYNQFAMVFFKKVSQNQEYFKITLYGRTKELTSELQENFIRFSKSLGLPENNIVFPVPIDQCIDG
notes: Mutant of human NGAL; Expressed in bacteria like the wild type and labelled with Alexa 568 in the uptake assays; also called K3 Scn-Ngal; Mut1
binding result: binds
